Experimental data taken from paper PMC12772356.

How the values were obtained:
[1] = system: ThHSF1 DBD (Trametes hirsuta AH28-2); assay: FP; settings: 5x binding buffer pH 6.8 (25 mM HEPES, 5 mM MgCl2, 150 mM KCl, 1 mM DTT, 5% glycerol), EMSA 100 nM probe, 16 C 30 min, then 37 C 30 min, 6% native PAGE
[2] = biological target: ThHSF1 full-length;ThHspA1 full-length (Trametes hirsuta AH28-2;Trametes hirsuta AH28-2) (UniProt A0AAD7TN48); assay: FP; settings: ThHspA1 added, 5x binding buffer pH 6.8 (25 mM HEPES, 5 mM MgCl2, 150 mM KCl, 1 mM DTT, 5% glycerol), EMSA 100 nM probe, 16 C 30 min, then 37 C 30 min, 6% native PAGE
[3] = system: ThHSF1 full-length (Trametes hirsuta AH28-2); assay: FP; settings: without ThHspA1, 5x binding buffer pH 6.8 (25 mM HEPES, 5 mM MgCl2, 150 mM KCl, 1 mM DTT, 5% glycerol), EMSA 100 nM probe, 16 C 30 min, then 37 C 30 min, 6% native PAGE
[4] = biological target: ThHSF1, heat shock transcription factor of Trametes hirsuta AH28-2 (full-length protein) (Trametes hirsuta AH28-2); assay: ITC; settings: natural protein
[5] = biological target: ThHspA1, Hsp70 homolog of Trametes hirsuta AH28-2 (full-length protein) (Trametes hirsuta AH28-2); assay: dynamic light scattering; purified full-length ThHSF1 alone, ThHspA1 alone and the two together (Fig. S10); conditions not given
[6] = biological target: ThHSF1, heat shock transcription factor of Trametes hirsuta AH28-2 (full-length protein) (Trametes hirsuta AH28-2); assay: ITC; iTC200, 25°C; 50 mM Tris, 500 mM NaCl, pH 7.5; 5 µM ThHspA1 titrated against 1 µM ThHSF1

Substance: AGTTCAGTATGTCTTGAAGATTATGCGGTCAGAAAC (double strand) [lacB promoter probe]
- Kd [1]: 5.46 µM

Substance: TACGCCAAGAACTGACTTACATGCAA (double strand) [lacA mutant probe 5]
- Kd [1]: 11.7 µM

Substance: TACGCCTAGAACTGACTTACATGCAA (double strand) [lacA mutant probe 4]
- Kd [1]: 5.2 µM

Substance: TACGCCTTAAACTGACTTACATGCAA (double strand) [lacA mutant probe 1]
- Kd [1]: 4.59 µM

Substance: TACGCCTTATACTGACTTACATGCAA (double strand) [lacA mutant probe 2]
- Kd [1]: 14.7 µM

Substance: TACGCCTTGAACTGACTTACATGCAA (double strand) [lacA promoter probe WT (26 bp)]
- Kd [2]: 0.673 µM
- Kd [3]: 1.03 µM
- Kd [1]: 0.961 µM

Substance: TTCGAACGCACCGAAACCATCCCGAACTTGGTCGAA (double strand) [lacF promoter probe]
- Kd [1]: 4.83 µM

Substance: ThHspA1, Hsp70 homolog of Trametes hirsuta AH28-2 (full-length protein)
- Ka [4]: 1.16e+07 M⁻¹

Substance: ThHspA1, Hsp70 homolog of Trametes hirsuta AH28-2 (full-length protein) (natural protein)
- stoichiometry N [5]: 6
- Kd [6]: 0.105 µM
